Results published in patent US20250381289A1 (Genmab, published 2025).

Target: T1, cMET on EGFR and cMET co-expressed tumor cell lines (UniProt P08581 25-1390, limits assumed)
T1 construct: whole, on cells
Experiment: flow cytometry on CAL-27 cells (co-express EGFR and cMET), PE anti-human Fc; signal of the whole bispecific, not resolved by arm

B1: Amivantamab (bispecific antibody, human IgG1, kappa)
heavy 1: not shown
light 1: not shown
heavy 2: not shown
light 2: DIQMTQSPSSVSASVGDRVTITCRASQGISNWLAWFQHKPGKAPKLLIYAASSLLSGVPSRFSGSGSGTDFTLTISSLQPEDFATYYCQQANSFPITFGQGTRLEIKRTVAAPSVFIFPPSDEQLKSGTASVVCLLNNFYPREAKVQWKVDNALQSGNSQESVTEQDSKDSTYSLSSTLTLSKADYEKHKVYACEVTHQGLSSPVTKSFNRGEC
notes: Bispecific positive control
- EC50 (read off the curve): ~3 nM
